This note sets out measurements from article PMC10602137 (2023).

The target of assay [1] is T1, GAD65 peptide on HLA-DRA*01:01 / HLA-DRB1*04:01 (human).
T1 peptide: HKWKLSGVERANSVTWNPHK
Briefly: proliferation.

Assay [2] concerns the target T2, influenza M protein (Influenza A MP54; also given MP74) peptide on HLA-DRA*01:01 / HLA-DRB1*04:01 (human).
T2 peptide: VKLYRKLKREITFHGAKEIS
Briefly: proliferation.

B1: Clone_81 (TCR)
alpha TRAV29DV5 TRAJ45 CDR3: CAASRYSGGGADGLTF
beta TRBV12-4 TRBJ1-1 CDR3: CASSPQGGNTEAFF
Turning to B1, the binding result in assay [1] and in assay [2] was “recognises” each time.

B2: Clone_566 (TCR)
alpha TRAV29DV5 TRAJ45 CDR3: CAASRYSGGGADGLTF
beta TRBV12-4 TRBJ1-1 CDR3: CASSVQGGNTEAFF
Regarding B2, the binding result in assay [1] and in assay [2] was “recognises” throughout.

B3: P196-1 (TCR)
alpha TRAV29DV5 TRAJ45 CDR3: CAASRYSGGGADGLTF
beta TRBV12-4 TRBJ1-1 CDR3: CASSLQGGNTEAFF
In the case of B3, the binding result in assay [1] and in assay [2] was “recognises” throughout.
